± gives the standard error. Variants at the floor of the assay were thinned out.
B1: glmS ribozyme (parent)
chain: AUAAAAGCGCCAGAACUACAGAAAUGUAGUUGACGAGGAGGAGGUUUAUCGAAUUUUCGGCGGAUGCCUCCAAA

Columns and labels:
Details in all cases: with glucosamine-6-phosphate
glucosamine-6-phosphate [1] = variants of: B1; assay: self-cleavage kobs at 160 uM GlcN6P; higher = faster cleavage; RNA array
Procedure, shortened: (§1)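 kobs was derived by fitting per-tile medians to one- or two-exponential decays after normalising signals to baseline and to non-cleaving reference variants. Those signals came from barcoded ribozyme variants transcribed in situ by E. coli RNA polymerase on sequenced MiSeq chips, followed through a hybridised Cy3 probe at 37 °C and imaged over ~14 h. Glucosamine-6-phosphate (40 μM to 10 mM) in HEPES/KCl/Mg(OAc)2 buffer was flowed in. Weighted Michaelis–Menten fits across concentrations then gave kcat and KM.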

glucosamine-6-phosphate [2] = variants of: B1; assay: self-cleavage kobs at 640 uM GlcN6P; higher = faster cleavage; RNA array
Procedure, shortened: as §1

glucosamine-6-phosphate [3] = variants of: B1; assay: self-cleavage kobs at 2500 uM GlcN6P; higher = faster cleavage; RNA array
Procedure, shortened: as §1

glucosamine-6-phosphate [4] = variants of: B1; assay: self-cleavage kobs at 10000 uM GlcN6P; higher = faster cleavage; RNA array
Procedure, shortened: as §1

| Variant | self-cleavage kobs at 160 uM GlcN6P (glucosamine-6-phosphate [1]) | self-cleavage kobs at 640 uM GlcN6P (glucosamine-6-phosphate [2]) | self-cleavage kobs at 2500 uM GlcN6P (glucosamine-6-phosphate [3]) | self-cleavage kobs at 10000 uM GlcN6P (glucosamine-6-phosphate [4]) |
| --- | --- | --- | --- | --- |
| C58G C67G | 5.68e-05 ± 1.1e-05 s⁻¹ | 0.000101 ± 1.3e-05 s⁻¹ | 5.23e-05 ± 1e-05 s⁻¹ | 1.83e-05 ± 8.7e-06 s⁻¹ |
| C50G U57G | 0.000283 ± 0.00012 s⁻¹ |  |  |  |
| C10A A12G C16A U47C G63A C67G | < 1e-05 s⁻¹ | < 1e-05 s⁻¹ |  |  |
| G13C A48G C71U | < 1e-05 s⁻¹ |  |  |  |
| C11A G43U U49C C61A G63C | < 1e-05 s⁻¹ |  | < 1e-05 s⁻¹ |  |
| G32C A48G G51U | < 1e-05 s⁻¹ | < 1e-05 s⁻¹ | < 1e-05 s⁻¹ |  |
| A36U G44A U55A | < 1e-05 s⁻¹ |  | < 1e-05 s⁻¹ |  |
| C16U U47A A53G U54A | 0.00109 ± 0.00027 s⁻¹ | 0.00231 ± 0.00054 s⁻¹ | 0.00464 ± 0.00094 s⁻¹ |  |
| G29A G63C C70G | 7.77e-05 ± 3e-05 s⁻¹ | 0.000155 ± 4.1e-05 s⁻¹ | 7.4e-05 ± 2.1e-05 s⁻¹ |  |
| A39G G43U C58A | < 1e-05 s⁻¹ | < 1e-05 s⁻¹ | < 1e-05 s⁻¹ |  |
| G7A G29U | < 1e-05 s⁻¹ | < 1e-05 s⁻¹ |  |  |
| A14C A36C A52U | < 1e-05 s⁻¹ | < 1e-05 s⁻¹ |  | < 1e-05 s⁻¹ |
| U31G A39C U45A | 0.000229 ± 6.4e-05 s⁻¹ | 0.000642 ± 0.0001 s⁻¹ | 0.00161 ± 0.00025 s⁻¹ |  |
| C16A G29C C58U | < 1e-05 s⁻¹ |  |  |  |
| A6G A12C G40A | < 1e-05 s⁻¹ | < 1e-05 s⁻¹ | < 1e-05 s⁻¹ |  |
| G35C U46A U56A C61U C68U | < 1e-05 s⁻¹ |  | < 1e-05 s⁻¹ |  |
| C50G U55A | 9.39e-05 ± 2.2e-05 s⁻¹ |  | 0.000374 ± 0.00012 s⁻¹ |  |
| G7U G37A A48C | < 1e-05 s⁻¹ | < 1e-05 s⁻¹ | < 1e-05 s⁻¹ | < 1e-05 s⁻¹ |
| G35U U46C | < 1e-05 s⁻¹ | < 1e-05 s⁻¹ |  |  |
| G35A G43U C50G A64G | < 1e-05 s⁻¹ |  |  |  |
| A1U U2G A3G A5U A14C U69C | 5.02e-05 ± 1.8e-05 s⁻¹ | 0.000257 ± 6e-05 s⁻¹ | 0.000526 ± 0.00012 s⁻¹ |  |
| C8A A53U U55C C58U U69C | < 1e-05 s⁻¹ |  |  |  |
| A6G C67U C71U | < 1e-05 s⁻¹ |  |  |  |
| G29U A33U U54G | < 1e-05 s⁻¹ |  |  |  |
| G44U U49C | < 1e-05 s⁻¹ | < 1e-05 s⁻¹ |  | < 1e-05 s⁻¹ |
| C10G G32C A48U C61G | < 1e-05 s⁻¹ | < 1e-05 s⁻¹ |  |  |

| Variant | self-cleavage kobs at 160 uM GlcN6P (glucosamine-6-phosphate [1]) | self-cleavage kobs at 640 uM GlcN6P (glucosamine-6-phosphate [2]) | self-cleavage kobs at 2500 uM GlcN6P (glucosamine-6-phosphate [3]) | self-cleavage kobs at 10000 uM GlcN6P (glucosamine-6-phosphate [4]) |
| --- | --- | --- | --- | --- |
| A12G G35U A42C A48C U57C | < 1e-05 s⁻¹ |  |  |  |
| G7A G13A G37C U46G | < 1e-05 s⁻¹ |  | < 1e-05 s⁻¹ |  |
| G43C U54A G60C | < 1e-05 s⁻¹ | < 1e-05 s⁻¹ |  |  |
| A33G G35A A36C A64G | < 1e-05 s⁻¹ |  |  |  |
| G51C U54G | < 1e-05 s⁻¹ | < 1e-05 s⁻¹ |  |  |
| C11U G41C A52U | < 1e-05 s⁻¹ | < 1e-05 s⁻¹ | < 1e-05 s⁻¹ |  |
| G43U C61G C71U | < 1e-05 s⁻¹ |  |  |  |
| G13U C34G | < 1e-05 s⁻¹ | < 1e-05 s⁻¹ | < 1e-05 s⁻¹ | < 1e-05 s⁻¹ |
| G9C G29A G51U | < 1e-05 s⁻¹ | < 1e-05 s⁻¹ | < 1e-05 s⁻¹ |  |
| A15G U55A G62U G63C | < 1e-05 s⁻¹ | < 1e-05 s⁻¹ |  |  |
| C11U C61A C67G | 7.27e-05 ± 2.3e-05 s⁻¹ | 8.2e-05 ± 3.6e-05 s⁻¹ | 7.14e-05 ± 3.3e-05 s⁻¹ |  |
| A36G U49A | < 1e-05 s⁻¹ | < 1e-05 s⁻¹ | < 1e-05 s⁻¹ | < 1e-05 s⁻¹ |
| G13A C50G | 0.000122 ± 3.1e-05 s⁻¹ | 0.000253 ± 0.00011 s⁻¹ | 4.08e-05 ± 1.9e-05 s⁻¹ |  |
| G7C U47A | < 1e-05 s⁻¹ | < 1e-05 s⁻¹ |  | < 1e-05 s⁻¹ |
| C11U U56A G66A | 4.3e-05 ± 1.4e-05 s⁻¹ | 8.42e-05 ± 1.7e-05 s⁻¹ | 0.000197 ± 4.1e-05 s⁻¹ |  |
| A33C C50A C71G | < 1e-05 s⁻¹ |  |  |  |
| A14G C58G U69A | 3.98e-05 ± 2e-05 s⁻¹ | 8.05e-05 ± 3.6e-05 s⁻¹ | 3.74e-05 ± 1.9e-05 s⁻¹ |  |
| A6G A36U G41A U47A C67G | < 1e-05 s⁻¹ | < 1e-05 s⁻¹ | < 1e-05 s⁻¹ |  |
| A42G G60A C68A | < 1e-05 s⁻¹ |  |  |  |
| G13A A42U | < 1e-05 s⁻¹ | < 1e-05 s⁻¹ |  |  |
| G13U G37A A53C G60U C67G | < 1e-05 s⁻¹ | < 1e-05 s⁻¹ | < 1e-05 s⁻¹ |  |
| A42G G51C G60U | < 1e-05 s⁻¹ |  |  |  |
| C8A A12C | < 1e-05 s⁻¹ | < 1e-05 s⁻¹ | < 1e-05 s⁻¹ | < 1e-05 s⁻¹ |
| C10U U30C | < 1e-05 s⁻¹ |  | < 1e-05 s⁻¹ |  |
| G32A U56G | 9.78e-05 ± 3.6e-05 s⁻¹ | 0.000151 ± 2e-05 s⁻¹ | 0.000254 ± 3.2e-05 s⁻¹ | 0.000906 ± 8.9e-05 s⁻¹ |
| A33U U54G U56G C61G U69C | 9.03e-05 ± 2.7e-05 s⁻¹ | 0.00035 ± 0.00013 s⁻¹ | 0.000171 ± 6e-05 s⁻¹ |  |

— the supplement of paper PMC7125110
